From patent US20100210517A1 (RAPTOR PHARMACEUTICAL, published 2010)
Substitutions are numbered along the chain they refer to. In names and notes the source's numbering stands.

B1: MegaRAP1 d3 revertant E270K (ligand)
chain: LDRLRRVSHQGYTTEAKFEEPRVIDLWDLAQSANLTDKELEAFREELKYFKAKIEAHNHYQKQLEIAHEKLRHAESVGDGERVSRSREKHALLEGRTKELGYTVKKHLQDLSGRISRAR
notes: MegaRAP1 d3 with position 270 reverted to wild type; also called MegaRAP1 d3 E270K; E270K revertant; not shown: N-terminal hexahistidine and S-peptide tags of pET30(+)a
B2: MegaRAP1 d3 double revertant K251E, E270K (ligand)
chain: B1 chain with K51E
notes: not shown: N-terminal hexahistidine and S-peptide tags of pET30(+)a
B3: MegaRAP1 d3 double revertant A256K, E270K (ligand)
chain: B1 chain with A56K
notes: as for B2
B4: MegaRAP1 d3 revertant T213S (ligand)
chain: B1 chain with T13S, K70E
notes: MegaRAP1 d3 with position 213 reverted to wild type; not shown: N-terminal hexahistidine and S-peptide tags of pET30(+)a
B5: RAP d3 forward mutant E251K, K256A, K270E (ligand)
chain: B1 chain with T13S, K17E, Y49H, K70E
notes: also called triple mutant; not shown: N-terminal hexahistidine and S-peptide tags of pET30(+)a
B6: MegaRAP1 d3 revertant K217E (ligand)
chain: B1 chain with K17E, K70E
notes: MegaRAP1 d3 with position 217 reverted to wild type; not shown: N-terminal hexahistidine and S-peptide tags of pET30(+)a
B7: RAP d3 forward mutant E251K (ligand)
chain: B1 chain with T13S, K17E, Y49H, A56K
notes: The paragraph gives only the position; the change E251K follows from the mutagenic primers; not shown: N-terminal hexahistidine and S-peptide tags of pET30(+)a
B8: RAP d3 forward mutant E217K (ligand)
chain: B1 chain with T13S, Y49H, K51E, A56K
notes: The paragraph gives only the position; the change E217K follows from the mutagenic primers and the MegaRAP1 mutation set; also called single-site RAP d3 mutant at 217; not shown: N-terminal hexahistidine and S-peptide tags of pET30(+)a
B9: RAP d3 forward mutant H249Y (ligand)
chain: B1 chain with T13S, K17E, K51E, A56K
notes: The paragraph gives only the position; the change H249Y follows from the mutagenic primers; also called single-site RAP d3 mutant at 249; not shown: N-terminal hexahistidine and S-peptide tags of pET30(+)a
B10: MatRAP2 d3 (ligand)
chain: LDRLRRVSHQGYSTEAEFEEPRVIDLWDLAQPANLTDKGLEAFREGLKHFLAKIEPHNHYQKQLETVREPLRYAESVGDGERVSRSHEKYALLEGRTRELGYTVKKHLQDLFGRISRAR
notes: Selected by phage panning on MAT CR34; also called RAP vMB; not shown: N-terminal hexahistidine and S-peptide tags of pET30(+)a
B11: MatRAP1 d3 (ligand)
chain: B1 chain with T13S, K17E, Y49H, K51G, A56R, K70W
notes: Selected by phage panning on MAT CR23; also called RAP vMA; not shown: N-terminal hexahistidine and S-peptide tags of pET30(+)a
B12: MatRAP1 truncated by 10 amino acids at the N-terminus (ligand)
chain: GYSTEAEFEEPRVIDLWDLAQSANLTDKELEAFREELKHFGAKIERHNHYQKQLEIAHEWLRHAESVGDGERVSRSREKHALLEGRTKELGYTVKKHLQDLSGRISRAR
notes: Range derived: d3 starts at 201 and 10 residues were removed; also called MatRAP1 N-10; not shown: N-terminal hexahistidine and S-peptide tags of pET30(+)a
B13: MatRAP1 truncated by 52 amino acids at the N-terminus (ligand)
chain: KIERHNHYQKQLEIAHEWLRHAESVGDGERVSRSREKHALLEGRTKELGYTVKKHLQDLSGRISRAR
notes: Range derived from the number of residues removed (52 total); also called MatRAP1 N-52; not shown: N-terminal hexahistidine and S-peptide tags of pET30(+)a
B14: MatRAP1 truncated by 31 amino acids at the N-terminus (ligand)
chain: SANLTDKELEAFREELKHFGAKIERHNHYQKQLEIAHEWLRHAESVGDGERVSRSREKHALLEGRTKELGYTVKKHLQDLSGRISRAR
notes: Range derived from the number of residues removed; also called MatRAP1 N-31; not shown: N-terminal hexahistidine and S-peptide tags of pET30(+)a
B15: MatRAP1 truncated variant, amino acids 243-313 (71 amino acids) (ligand)
chain: FREELKHFGAKIERHNHYQKQLEIAHEWLRHAESVGDGERVSRSREKHALLEGRTKELGYTVKKHLQDLSG
notes: also called best truncated variant; not shown: N-terminal hexahistidine and S-peptide tags of pET30(+)a
B16: RAP d3 forward mutant K270E (ligand)
chain: B1 chain with T13S, K17E, Y49H, K51E, A56K, K70E
notes: also called K270E alone; not shown: N-terminal hexahistidine and S-peptide tags of pET30(+)a
B17: MegaRAP1 d3 revertant Y249H (ligand)
chain: B1 chain with Y49H, K70E
notes: MegaRAP1 d3 with position 249 reverted to wild type; not shown: N-terminal hexahistidine and S-peptide tags of pET30(+)a
B18: RAP d3 forward mutant K256A, K270E (ligand)
chain: B1 chain with T13S, K17E, Y49H, K51E, K70E
notes: also called K270E in combination with K256A; not shown: N-terminal hexahistidine and S-peptide tags of pET30(+)a
B19: MegaRAP1 d3 revertant K251E (ligand)
chain: B1 chain with K51E, K70E
notes: as for B2
B20: RAP d3 forward mutant E251K, K270E (ligand)
chain: B1 chain with T13S, K17E, Y49H, A56K, K70E
notes: also called K270E in combination with E251K; not shown: N-terminal hexahistidine and S-peptide tags of pET30(+)a
B21: MegaRAP1 d3 revertant A256K (ligand)
chain: B1 chain with A56K, K70E
notes: as for B2
B22: MatRAP1 N-42 without the C-terminal linker and affinity tag (ligand)
chain: FREELKHFGAKIERHNHYQKQLEIAHEWLRHAESVGDGERVSRSREKHALLEGRTKELGYTVKKHLQDLSGRISRAR
notes: Range derived; not shown: N-terminal hexahistidine and S-peptide tags of pET30(+)a

Target: T1, LRP2 CR89 (human, UniProt P98164 1025-1102)
T1 construct: domain: CR89; also called YVWR; L2 CR89; not shown: N-terminal hexahistidine and S-peptide tags of pET30(+)a
Assay: solid-phase assay on coated CR protein, single-site non-linear fit
Experimental: (§1) Data were plotted and fitted by non-linear regression with the assumption of a single binding site (GraphPad Prism). Kd values with standard deviations were derived from the regression analysis.
(§2) Solid phase binding assays-Purified, refolded CR protein (1 μg) was bound to Nunc Maxisorp™ 96-well plates in TBS pH 8 supplemented with 5 mM CaCl₂ (TBSC) overnight at 4° C. Wells were washed with TBSC and then blocked with TBSC containing 2% bovine serum albumin (BSA). […] Control wells contained no added ligand. As an additional control, to determine whether the absence of calcium affected binding, 10 mM EGTA was included in the incubation medium for some samples. […] Excess primary antibody was removed and wells washed before incubation with the secondary antibody, HRP-conjugated goat anti rabbit IgG (Bio-Rad). After washing, TMB substrate solutions (Bio-Rad) were added to detect HRP. Color development was stopped with 1N HCl. Absorption at 450 nm was measured with a microplate spectrophotometer (Molecular Devices). Data were plotted and Kd values derived by non-linear regression with the assumption of single-site binding (GraphPad Prism).

T1 sequence (P98164 1025-1102): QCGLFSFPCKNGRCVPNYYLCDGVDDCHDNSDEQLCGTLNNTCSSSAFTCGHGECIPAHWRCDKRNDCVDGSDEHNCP

Binder	Kd [nM]
B1	8
B2	153
B3	72
B4	19
B5	114
B6	25

Target: T2, LRP1 CR3-5 (human)
T2 construct: range 852-973; also called L1 CR3-5
Assay: as above
Experimental: as §1, §2

T2 sequence (Q07954 852-973): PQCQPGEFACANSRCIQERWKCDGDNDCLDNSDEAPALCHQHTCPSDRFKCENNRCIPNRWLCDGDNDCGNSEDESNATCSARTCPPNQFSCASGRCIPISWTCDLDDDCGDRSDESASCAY

Binder	Kd [nM]
B7	7
B1	114
B3	4
B8	9
B9	28

Target: T1, LRP2 CR89
Assay: solid-phase assay on coated CR protein, each ligand at 80 nM, blank-corrected absorbance
Experimental: (§3) Samples were tested twice, in duplicate, and values combined. Means and standard deviations were then calculated. Blank values obtained from wells incubated in the absence of ligand were used to correct absorbance data.
as §2

Binder	binding result
B10	no binding (tested: 80 nM)
B11	no binding (tested: 80 nM)

Target: T3, LRP2 CR3031 (human, UniProt P98164 3677-3755)
T3 construct: domain: CR3031; Its cloning is not described in the methods; not shown: N-terminal hexahistidine and S-peptide tags of pET30(+)a
Assay: as above
Experimental: as §3, §2

T3 sequence (P98164 3677-3755): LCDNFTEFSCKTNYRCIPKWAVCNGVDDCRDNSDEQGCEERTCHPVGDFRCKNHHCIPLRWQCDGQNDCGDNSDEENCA

Binder	binding result
B10	no binding (tested: 80 nM)
B11	no binding (tested: 80 nM)

Target: T4, LRP2 CR34-36 (human, UniProt P98164 3841-3963)
T4 construct: domain: CR34-36; not shown: N-terminal hexahistidine and S-peptide tags of pET30(+)a
Assay: as above
Experimental: as §3, §2

T4 sequence (P98164 3841-3963): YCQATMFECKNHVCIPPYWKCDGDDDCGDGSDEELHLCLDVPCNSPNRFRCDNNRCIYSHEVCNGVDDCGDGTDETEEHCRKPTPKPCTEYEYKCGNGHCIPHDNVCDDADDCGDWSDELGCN

Binder	binding result
B10	no binding (tested: 80 nM)
B11	no binding (tested: 80 nM)

Target: T5, LRP2 CR2728 (human, UniProt P98164 3552-3631)
T5 construct: domain: CR2728; Its cloning is not described in the methods; not shown: N-terminal hexahistidine and S-peptide tags of pET30(+)a
T5 sequence (looked up): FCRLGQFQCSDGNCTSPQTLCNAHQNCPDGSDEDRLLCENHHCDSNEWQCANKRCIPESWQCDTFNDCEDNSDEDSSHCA
Assay: as above
Experimental: as §3, §2

Binder	binding result
B10	no binding (tested: 80 nM)
B11	no binding (tested: 80 nM)

Target: T6, LRP2 CR3536 (human, UniProt P98164 3882-3963)
T6 construct: domain: CR3536; not shown: N-terminal hexahistidine and S-peptide tags of pET30(+)a
Assay: as above
Experimental: as §3, §2

T6 sequence (P98164 3882-3963): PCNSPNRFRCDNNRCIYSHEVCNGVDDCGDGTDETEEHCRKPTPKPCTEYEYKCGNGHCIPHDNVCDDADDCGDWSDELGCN

Binder	binding result
B10	no binding (tested: 80 nM)
B11	no binding (tested: 80 nM)

Target: T1, LRP2 CR89
Assay: solid-phase binding assay, CR protein coated on plate, anti-RAP detection

Binder	fold difference in affinity against the single-site E270K revertant [fold]	fold loss of affinity against the E270K revertant [fold]
B2	~20	–
B3	–	2

Target: T2, LRP1 CR3-5
Assay: as above

Binder	Kd [nM]	fold improvement in affinity against the E270K single-site revertant [fold]
B1	142	–
B3	–	~30

Target: T7, MAT CR12 (human, UniProt Q9Y5Y6 452-524)
T7 construct: also called ST14 CR12; matriptase CR12
T7 sequence: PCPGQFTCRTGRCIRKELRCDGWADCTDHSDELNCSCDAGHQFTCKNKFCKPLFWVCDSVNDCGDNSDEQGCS
Assay: binding of truncated MatRAP1 forms to MAT CR12, relative signal under isomolar conditions
Experimental: as §2

Binder	fnctn (relative binding signal under isomolar conditions)	binding result
B12	0.1	–
B13	–	no binding
B14	0.35	–
B11	0.22	–
B15	2.7	–

Target: T1, LRP2 CR89
Assay: solid-phase assay; OD at the highest ligand concentration as percent of the highest OD of all ligands
Experimental: as §2

Binder	% max [%]
B16	2
B7	5
B17	35
B1	100
B2	16
B18	3
B3	73
B19	11
B4	94
B5	40
B8	5
B9	2
B20	2
B21	2
B6	88

Target: T2, LRP1 CR3-5
Assay: as above
Experimental: as §2

Binder	% max [%]
B16	4
B7	100
B17	2
B2	16
B18	2
B3	93
B19	2
B4	2
B5	2
B8	91
B9	90
B20	4
B21	6
B6	2

Target: T1, LRP2 CR89
Assay: solid-phase assay on coated CR protein, anti-RAP detection, A450
Experimental: as §1, §2

Binder	binding result
B16	no binding (tested: 100 nM)
B7	no binding (tested: 100 nM)
B18	no binding (tested: 100 nM)
B19	no binding (tested: 100 nM)
B8	no binding (tested: 100 nM)
B9	no binding (tested: 100 nM)
B20	no binding (tested: 100 nM)
B21	no binding (tested: 100 nM)

Target: T8, MAT CR23 (human)
T8 construct: range 487-566; also called ST14 CR23; matriptase CR23
Assay: solid-phase binding assay; target not given, MAT CR23 is the pair MatRAP1 was selected on
Experimental: as §2

T8 sequence (Q9Y5Y6 487-566): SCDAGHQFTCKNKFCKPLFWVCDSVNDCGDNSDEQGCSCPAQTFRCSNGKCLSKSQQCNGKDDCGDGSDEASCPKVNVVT

Binder	fold increase in affinity over MatRAP1 N-42 [fold]	fold increase in affinity over the full-length d3 variant [fold]
B22	2	–
B15	4	12
